Results taken from the nanobody polyreactivity screen of Harvey et al. (2022).

Assay: yeast display, Sf9 membrane polyspecificity reagent, FACS + sequencing; frameworks hold sequencing errors
Outline: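 A synthetic nanobody library was expressed on Saccharomyces cerevisiae BJ5465 by galactose induction for 36–48 hours. The library was stained for 1 hour at 4 °C with 10% biotinylated, detergent-solubilized Sf9 membrane reagent and enriched with streptavidin microbeads before FACS. Low and high (top ~1%) gates were set on anti-HA fluorescence for expression and streptavidin fluorescence for reagent binding, and each polyreactivity label reflects the gate of origin.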

LVQLVESGGGLVQAGGSLRLSCAASGFIFGYYAMGWYRQAPGKERELVAASTRSGGSTRYADSVKGRFTISRDKAKNTVYLQMNSLKPEDSAVYYCAADSCPINLYEDYWGQGTQVTVSS
polyreactivity (PSR sort gate): high polyreactivity

QDQHVESGGGLVQAGGSLRLSCAASGSTIVDYVMGWYRQAPGKERELVAAIRRSDGRTYYADSVKGRFTISRDNAKNTVYLQMNSLKPEDTAVYYCADYAFYRYFFPDVLYDYWGQGTQVTVSS
polyreactivity (PSR sort gate): low polyreactivity

QVQLVESGGGLLQAGGSHRLSCAASGILVYNAMGWYTQAPGKERELVAAISARGGRTYYADSVKGRFTISRDNAKNTVYLQMNSLKPEDSAVYYCATLETTGVNYWGQGTQVTVSS
polyreactivity (PSR sort gate): high polyreactivity

QDQLVESGGGLLQAGGSLRLSCAASGIIFYPYAMGWYRQAPGKERELVAAITTRGRTYYADSVKGRFTISRDNAKNTVYLQLNSLKPEDTAVYYCNARRYFSRDSSGYNYWGQGTQVTVSS
polyreactivity (PSR sort gate): high polyreactivity

QVQLVESGGGLVQAGGSLRLSCAASGSNFRLYAMGWYRHAPGKERELVATISGSAGRTYYADSVKGRFTISRDYAKNTVYLQMNSLKPEDTAVYYCAARWYQEYFWGQGTQVTVSS
polyreactivity (PSR sort gate): high polyreactivity

QVQLVESGGGLVQAGGSLRLSCAASGRTFVTYAMGWYRQAPGKERELVAAISASGGSTYYADSVKGRFTISRDNAKNTVYLQMNSLKTEDTAVYYCAKTYFLATPYGYWGQGTQVTVSS
polyreactivity (PSR sort gate): low polyreactivity

QVQHVESGGGLVQAGGSLRLSCAASGRIFKYNAMGWYRPAPGKERELVAAISYSGGSTYYADSVKGRFTISRDNAKNTVYLQMNSVKPEDTEVYYCAKATTTREPKYGYWGQGTQVTVSS
polyreactivity (PSR sort gate): high polyreactivity

QVQLVESGGGLVQAGGSLRLSCAASGSTFCRNAMGWYRQAPGKERELVAAISRRGGSTYYADSVKGRFTISRDNAKNTVYLQMTSLKPEDTAVYYCYRDSSYKHNYDYWAQGTQVTVSS
polyreactivity (PSR sort gate): high polyreactivity

QVQLVESGGGLVQAGGSLRLSCAASGRTVLVYTMGWYRQAPGKERELVAAISWSDGSTYYADSVKGRFTMSRDNAKNTVYLHMNSLKPEDTAVYYCAARTFSAFWRGGYDYWGQGTQVTVSS
polyreactivity (PSR sort gate): low polyreactivity

QVQLVESGGCLVQGGGSLRLTWAASGRTFPYNNMRRYRQAPGKERELVASITYTDGSTSYADCVKGRFTISRDNAKNTVYLQMNSLKPQDTADYYCAAVYYAHQDYRFDYWGQGTQVTVSS
polyreactivity (PSR sort gate): low polyreactivity

QVQLVESGGGLVQAGGSLRLSCAASGRIFSGYAMGWYRKAPGKERELVAAINRGGDTNYADSVKGRFTISRDNAKNTVYLQMNSLKPEDTAVYYCAAQYSGRYRRVPKSYPDRGDYWGQGTQVTVSS
polyreactivity (PSR sort gate): low polyreactivity

QVQLVESGGGLVQAGGSLRLSCAASGRTLSYYAMGWYSQAPGKERELVAAITWNGGRTYYADSVKGRFTISRDNAKNTVYLQMNSRKPEDTAVYYCNAVYSPRYYVGGYDYWGQGTQVTVSS
polyreactivity (PSR sort gate): high polyreactivity

QVQLVESGGGLVQAGGSLRLSCAASGSTFPVNTMGWYRQAPGKERELVAAITKNGANTYYADSVKGRFTISRDNAKNTVYLQMNSLKPEDTADYYCAARYVYGKSYSRWLVELDYWGQGTQVTVSS
polyreactivity (PSR sort gate): low polyreactivity

QVQLVESGGGLVQAGGSLRLSCAASGLIFPRYAMGWYRQAPGKERELVAAITRGGSTYYADSVKGRFTISRDNAKNTVYLQMNSLKPEATAVYDCNAELPVHCSWYDYWGQGTQVTVSS
polyreactivity (PSR sort gate): low polyreactivity

QVQLQESGGDLEQAGGSLRLSCTASGTISDVRVMGWSRQAPGKERELVATISYVTITYYADSVKGRFTISRDSEKHRVSADDEPETGRYRGVLFRYYWGLGTQVTVSS
polyreactivity (PSR sort gate): low polyreactivity

QVQLVESGGGLVQAGGSLRLSCDASGRTFSSNAMGWYRQAHGKERELVAAISFRGGRTFYADSVKGRFTISRDNAKNTVYLQMNSLKPEDTAVYYCNAVPETRTYDYWGQGTQVTVSS
polyreactivity (PSR sort gate): high polyreactivity

QVQLVESGGGLVQAGGSLRLSCAASGSIFGGYAMGWYRQAPGKERELVAAITWGGGSTYYADSVKGRFTISRDNAKNTVYLQMNSLKPEDTAVYYCAADRSWYDWEDDYWGQGTQVTVSS
polyreactivity (PSR sort gate): low polyreactivity

QVQLVESGGGLVQAGGSLRLSCAASGIILREYTMGWYRQAPGKERELVAAISGSGGSTYYADSVKGRFTISRDNAKNTVYLQMNSLKPDDTAVYYCNAVIAAKARDAVVGSGMDYWGQGTQVTVSS
polyreactivity (PSR sort gate): high polyreactivity

QVQLVESGGGLFQAGGSLRLSCAASGRTFVHNAMGWYRQAPGKERDLVAVITSGARTTYADSVKGRFTISRDNAKNTVYLQMNSLKPEDTAVYYFAAGTFSVIFSYKYRHYYYWGQGTQVTVSS
polyreactivity (PSR sort gate): low polyreactivity

QVQLVESGGGLVQAGGSLRLTCAASGSIFYLNAMGWYRQAPGKERELVATISNGGSTNYADSVKGRFTISRDNAKNTVYLQMYSLKPEDTAVYYCAAASGGTVVGEGDYWGLGTQVTVSS
polyreactivity (PSR sort gate): low polyreactivity

QVQLVESGGGLVQAGGSLRLSCAASGSTFTGNAMGWYRQAPGKERELVAAITDRGGSTYADSVKGRFTISRDNAKNTVYLQMNSLKPEDTAVYYCATRRDLHDRYEYDYWGQGTQVTVSS
polyreactivity (PSR sort gate): low polyreactivity

QVQLVESGGGLVQAGGSLRLSCAASGRTFRSNVMRWYRQAPGKERELVASITWSGGTTYYADSVKGRFTISRDNAKNTVYLQMNSLKPEDTAVYYCNAADERSQGWVGYDHWGQCTQVTVSS
polyreactivity (PSR sort gate): low polyreactivity

QVQLVESGGGLVQAGGSLRLSCAASGRISGYAMGWYRQAPGKERELVAAISTRGGTTYYADSVKGRFTISRDNAKNTVYLQMNSLSPEDTAVYYCNAASSRWPEYDYWGQGTQVTVSS
polyreactivity (PSR sort gate): high polyreactivity

QVQLVESGGGLVQAGGSLRLSCAASGSIFRGYAMGWYRQAPGKERELVAAINTSGGRTYYADSVKGRFTISRDNAKNTVYLQMNSLKPEDTAVYYCATEYYQAKREDYWGQGTQVTVSS
polyreactivity (PSR sort gate): high polyreactivity

QVQLVESGGRLVPAGGSLRLTCAASGIISVYYVMGWYRPAPGKERELVAAINRSGGNTYYADSVKGRFTISRDNAKNTVYLQMNSLKPEDTAVYYCKASLYFYRYGHDDESDYWGQGTQVTVSS
polyreactivity (PSR sort gate): high polyreactivity

QVQLVETGAGLVQAGGSLRLSCAASGRTFDDNAMGWSRQATGEVRELVAAISSTGSTNYADSVKGRFTISRDNAKNTVYFQMNSLKPEDTAVYYCNTDRGHERAFYYWGQGTQVTVSS
polyreactivity (PSR sort gate): low polyreactivity

QVQLVESGGGLVQAGGSLRLSCAASGFIFGRYAMGWYRQAPGKERELVAAISKTGGRTYYADSVKGRFTISRDNAKNTVYLQMNSLKPEDTAVYYCAAVYKRGMDYWGQGTEVTVSS
polyreactivity (PSR sort gate): high polyreactivity

QVQLVESGGGLVQAGGSLRLSCAASGITFPSYTMGWYRQAPGKERELVATIRNGGSTYYADSVKGRFTISRDNAKNTVYLHMNSLKPEDTAVYYCAAVPLWDYKVFYYLLYDYWGQGTQVTVSS
polyreactivity (PSR sort gate): low polyreactivity

QVQLVESGGGLVQAGGSLRFSCAASGFIFSFYAMGWYRQAPGKERELVAAISSSGSTNYADSVKGRFTISRDNAKNTVYLQMNSLKPEDTAVYYCAARWHRSRAGYYYWGQGTQVTVSS
polyreactivity (PSR sort gate): high polyreactivity

QVQLVESGGGLVQAGGSLRLSCAASGSIFGVYAMGWYRPAPGKERELVAVIRWRGGSTYYADSVKGRFTISRDNAKNTVYLQMNSLKPEDTAVYYCAARRHIVVATYDRRYDYWGQGTQVTVSS
polyreactivity (PSR sort gate): low polyreactivity

QVQLVESGGGLVQAGGSLRLSCAASGISFNSYTMGGYRQAPGKERELVAAITASGGTTRYADSVKGRFTISRDNAKNTVYLQMNSLKPEYTAVYYCNALPFRYGKRRGYWGQGTQVTVSS
polyreactivity (PSR sort gate): low polyreactivity

PVQLVESGGGLVQAGGSLSLTCAASGFIFYDYAMRWYRPAPGKERELVAGITSSGTSTYYADSVKGRFTISRDNAKNTVYLQMNSLKPEDTSVYYFNKAPSWWDVRVPFDYWGQGTQVTVSS
polyreactivity (PSR sort gate): low polyreactivity
